Article PMC7940618, “Specific inhibition of the Survivin–CRM1 interaction by peptide-modified molecular tweezers” (Nature Communications, 2021)
pIC50, pKd: −log10 of the molar value.

Experiments:
[1] = target: TW-ELTLGEFL-FAM (human); test: fluorescence polarisation; fluorescence anisotropy; 200 nM FAM-labeled tweezer titrated with Survivin120 (to 180 µM) or K90/103T (to 350 µM); PBS pH 7.4, 25 °C; single-site model
[2] = target: TW-ELTL-FAM (human); test: as above
[3] = target: TW-ELTLGEFL (asymmetrical molecular tweezer linked to the elongated peptide ELTLGEFL) (human); test: ITC; tweezer conjugate (100 µM) in the cell, Survivin120 (1.2 mM WT or 2.5 mM K90/103T) in the syringe; PBS pH 7.4, 25 °C; one set of sites model
[4] = target: TW-ELTL (asymmetrical molecular tweezer linked to the short peptide ELTL) (human); test: as above
[5] = target: Atto488-labeled Survivin120 (human) (UniProt O15392); test: fluorescence polarisation; fluorescence anisotropy competition; Atto488-Survivin120 preincubated with CRM1_1-1062VLV430AAA at 1:5, titrated with tweezers to approx. 180 µM; PBS pH 7.4, 25 °C; n = 1
[6] = target: Survivin142-HA (human) (UniProt O15392); test: pull-down; competition in the pull-down of a5: 293T lysate with Survivin142-HA preincubated 1 h with 10 nM to 200 µM tweezer conjugate before GST-CRM1, RanQ69L and dGTP
Survivin142-HA (human), sequence (O15392 whole entry): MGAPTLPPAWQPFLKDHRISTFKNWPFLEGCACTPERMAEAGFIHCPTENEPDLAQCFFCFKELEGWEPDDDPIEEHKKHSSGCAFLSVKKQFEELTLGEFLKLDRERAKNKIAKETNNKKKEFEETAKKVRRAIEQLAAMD

Atto488-labeled Survivin120 (human), sequence (O15392 1-120): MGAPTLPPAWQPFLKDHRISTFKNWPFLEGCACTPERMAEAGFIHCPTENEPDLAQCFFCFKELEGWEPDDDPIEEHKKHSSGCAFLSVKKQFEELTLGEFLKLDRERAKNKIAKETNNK

Substance | pKd [1] | pKd [2] | pKd [3] | stoichiometry N (ligand/protein) [3] | pKd [4] | stoichiometry N (ligand/protein) [4] | pIC50 [5] | concentration required to disrupt the Survivin–CRM1 complex [6] [µM]
Survivin120 K90/103T (from UniProt O15392 1-120) (domain or fragment) | 4.04 | 3.62 | 4.44 | 1 | 4.30 | 1 | – | –
TW-ELTL (asymmetrical molecular tweezer linked to the short peptide ELTL) | – | – | – | – | – | – | 4.41 | 10 to 50
